Measurements: US20210284747A1 (CAPELLA BIOSCIENCE, published 2021)

T1: Recombinant human soluble LIGHT, amino acids 74-240 (R&D Systems 664-LI) (human, UniProt O43557 74-240)
T1 construct: range 74-240; Glycosylated trimer by native MS; also called 74-240 LIGHT
T1 chain: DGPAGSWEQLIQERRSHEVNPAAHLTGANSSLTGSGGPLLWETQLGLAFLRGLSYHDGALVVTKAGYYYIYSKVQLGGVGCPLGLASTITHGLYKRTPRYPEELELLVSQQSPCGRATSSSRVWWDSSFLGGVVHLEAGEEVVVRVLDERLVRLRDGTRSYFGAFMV


How the values were obtained:
[1] = target: T2, Human LIGHT stably expressed on EL4 cells (EL4-LIGHT) (human, UniProt O43557 1-240); assay: flow cytometry competition on EL4-LIGHT cells, co-incubation 40 min 4 C; blocked ligand DcR3-Fc-AF647 0.8 ug/ml; displacement is partial
T2 construct: whole, on cells; also called membrane LIGHT
Procedure: (§1) EL4-LIGHT cells were co-incubated with Alexa Fluor 647 conjugated DcR3-Fc (DcR3-Fc-AF647; 0.8 μg/ml) and graded concentrations (31 μg/ml to 128 μg/ml) of anti-membrane LIGHT antibodies (3B04, 03D12 and 02B111) for 40 min at 4° C. A control, of a mAb that binds both soluble and membrane LIGHT was included (F19 from EP2292663). The samples were washed three times and flow cytometry analysis was performed. Specific mean fluorescence intensity (MFI) obtained from the binding of DcR3-Fc-AF647 to LIGHT on EL4 cells were used to determine the levels of competition binding.

[2] = target: T2, Human LIGHT stably expressed on EL4 …; assay: KD calculated from the EC50 on EL4-LIGHT cells (Table 7)
[3] = target: T2, Human LIGHT stably expressed on EL4 …; assay: flow cytometry competition on EL4-LIGHT cells, co-incubation 40 min 4 C; blocked ligand DcR3-Fc-AF647 0.8 ug/ml; same IC50 as 0.020ug/ml, second unit printed
Procedure: as §1

[4] = target: T2, Human LIGHT stably expressed on EL4 …; assay: flow cytometry, EL4-LIGHT cells
Procedure: The EC50 of the 7 mAbs were calculated from binding to EL4-LIGHT cells (FIG. 1). […] Non-linear regression analysis was performed to determine the functional binding affinity measurement or EC50 for each mAb. A range of functional affinities was observed.

[5] = target: T1, Recombinant human soluble LIGHT, amino …; assay: summary statement comparing soluble LIGHT binding with membrane LIGHT binding; soluble LIGHT preparation not specified
[6] = target: T2, Human LIGHT stably expressed on EL4 …; assay: flow cytometry competition on EL4-LIGHT cells, co-incubation 40 min 4 C; blocked ligand DcR3-Fc-AF647 0.8 ug/ml; same IC50 as 0.031ug/ml, second unit printed
Procedure: as §1

T2 sequence (O43557 whole entry): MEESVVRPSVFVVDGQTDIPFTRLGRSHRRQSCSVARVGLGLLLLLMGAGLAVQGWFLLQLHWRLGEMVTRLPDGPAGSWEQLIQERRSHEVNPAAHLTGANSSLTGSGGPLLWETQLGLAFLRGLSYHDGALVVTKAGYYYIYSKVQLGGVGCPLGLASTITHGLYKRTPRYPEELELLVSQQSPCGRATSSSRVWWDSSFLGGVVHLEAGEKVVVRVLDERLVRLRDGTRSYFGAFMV

Row | IC50 [1] | Kd [2] | IC50 [3] | EC50 [4] | fold less specific to soluble LIGHT than membrane LIGHT [5] | IC50 [6] | Binder
1 | 0.02 µg/mL | 0.1 nM | 0.138 nM | 0.095 nM | > 100 fold |  | 3B04 chimeric IgG4 mAb (antibody, V domains shown, also called Parental 3B04) VH: QVQLQQPGAELVRPGASVTLSCKASGYTFTDYEMHWVKQTPVHGLEWIGEIDPETGDTAYSQKFKGKATLTADKSSSTAYMEFRSLTSEDSAVYYCSRETDYFFDYWGQGTTLTVSS VL: DIQMTQTPASLSASVGETVTITCGASENIYGALNWYQRKQGKSPQLLIYGATNLADGMSSRFSGSGSGRQYSLKISSLHPDDFATYYCQNVLTTPWTFGGGTKLEIK
2 | 0.031 µg/mL | 0.07 nM |  | 0.07 nM |  | 0.214 nM | 3D12 chimeric IgG4 mAb (antibody, V domains shown, Chimeric human IgG4 (S-to-P, L-to-E) with human CL, as m1; also called Parental 3D12; 03D12) VH: QVQLQQPGAELVRPGASVTLSCKASDYTFTDSEIHWVKQTPVHGLEWIGEIDPETGGTAYNQKFKGKATLTADKSSSTAYMELRSLTSEDSAVYYCSRETDYFFDYWGQGTTLTVSS VL: DIQMTQSPASLSASVGETVTITCGASENIYGALNWYQRKQGKSPQLLIYGATNLADGMSSRFSGSGSGRQYSLKISSLHPDDVATYYCQNVLSTPWTFGGGTKLEIK
